Laboratory results from patent US6635440, “Method of isolation of RNA-binding compounds” (European Molecular Biology Laboratory).

Tests used:
MS2 coat protein = MS2 coat protein (Bacteriophage MS2, UniProt P03612 P03612:2-130); experiment: cell_activity; GFP repression in yeast, galactose vs glucose; conditions: tags: expressed from YCpCP in S. cerevisiae RS453; chain copies: 2; hairpin
Description: (§1) YCpU1A, YCpIRP-1 and YCpCP were used for the galactose inducible expression of U1A, IRP-1 and MS2 coat protein, respectively. These plasmids contain a URA3 selection marker. The sequences and nomenclature of the GFP reporter plasmids are described in FIG. 3. Binding site insertions are represented by Capital letters. Differences between wild type and mutated binding sites are indicated by arrows.
(§2) This reduction specifically requires the presence of the wild type binding site and the cognate binding protein, and is not seen with either the mutant binding sites (FIG. 4c and f) or the non-cognate binding proteins (FIGS. 4a and d).

U1A spliceosomal protein = U1A spliceosomal protein (UniProt P09012 P09012:2-282); experiment: as above; conditions: tags: expressed from YCpU1A in S. cerevisiae RS453; hairpin
Sequence of U1A spliceosomal protein (P09012 2-282, one chain of several): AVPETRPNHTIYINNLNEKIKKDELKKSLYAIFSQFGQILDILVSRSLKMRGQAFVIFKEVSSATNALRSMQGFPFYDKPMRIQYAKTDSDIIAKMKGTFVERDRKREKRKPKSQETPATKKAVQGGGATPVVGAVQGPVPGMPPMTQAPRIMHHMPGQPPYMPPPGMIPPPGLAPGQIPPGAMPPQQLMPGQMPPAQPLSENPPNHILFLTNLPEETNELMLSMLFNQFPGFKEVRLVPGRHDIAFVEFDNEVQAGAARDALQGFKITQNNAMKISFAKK
Description: as §1, §2

Sequence of MS2 coat protein (P03612 2-130, one chain of several): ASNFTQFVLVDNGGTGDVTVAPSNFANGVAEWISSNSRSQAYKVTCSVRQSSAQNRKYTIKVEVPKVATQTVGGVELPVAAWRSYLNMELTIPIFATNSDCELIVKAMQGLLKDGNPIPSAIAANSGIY

B1: MSC GFP 5'UTR (ssRNA)
RNA: AAUUAUCUACUUAAGGACCAUCAGGCCUUAAGAACACAAAACUCGAGAACAUAUUUUUAAUAUUAUG
B1 gave an activity (MS2 coat protein) of ~70 % repression.

B2: MSA GFP 5'UTR (ssRNA)
RNA: AAUUAUCUACUUAAGGACCAUAAGGCCUUAAGAACACAAAACUCGAGAACAUAUUUUUAAUAUUAUG
With B2 the activity (MS2 coat protein) was ~50 % repression.

B3: U1Awt (U1 snRNA loop 2) GFP 5'UTR (ssRNA)
RNA: AAUUAUCUACUUAAGCGAUUGCACUCCCGCUUAAGAACACAAAACUCGAGAACAUAUUUUUAAUAUUAUG
In the case of B3, the activity (U1A spliceosomal protein) is reported as ~40 % repression.
